These results are taken from IntAct's records for PubMed 19509288.

Sequences and labels used below:
B1: ATP-dependent RNA helicase SUPV3L1, mitochondrial (Homo sapiens), Q8IYB8 (parent)
chain: MSFSRALLWARLPAGRQAGHRAAICSALRPHFGPFPGVLGQVSVLATASSSASGGSKIPNTSLFVPLTVKPQGPSADGDVGAELTRPLDKNEVKKVLDKFYKRKEIQKLGADYGLDARLFHQAFISFRNYIMQSHSLDVDIHIVLNDICFGAAHADDLFPFFLRHAKQIFPVLDCKDDLRKISDLRIPPNWYPDARAMQRKIIFHSGPTNSGKTYHAIQKYFSAKSGVYCGPLKLLAHEIFEKSNAAGVPCDLVTGEERVTVQPNGKQASHVSCTVEMCSVTTPYEVAVIDEIQMIRDPARGWAWTRALLGLCAEEVHLCGEPAAIDLVMELMYTTGEEVEVRDYKRLTPISVLDHALESLDNLRPGDCIVCFSKNDIYSVSRQIEIRGLESAVIYGSLPPGTKLAQAKKFNDPNDPCKILVATDAIGMGLNLSIRRIIFYSLIKPSINEKGERELEPITTSQALQIAGRAGRFSSRFKEGEVTTMNHEDLSLLKEILKRPVDPIRAAGLHPTAEQIEMFAYHLPDATLSNLIDIFVDFSQVDGQYFVCNMDDFKFSAELIQHIPLSLRVRYVFCTAPINKKQPFVCSSLLQFARQYSRNEPLTFAWLRRYIKWPLLPPKNIKDLMDLEAVHDVLDLYLWLSYRFMDMFPDASLIRDLQKELDGIIQDGVHNITKLIKMSETHKLLNLEGFPSGSQSRLSGTLKSQARRTRGTKALGSKATEPPSPDAGELSLASRLVQQGLLTPDMLKQLEKEWMTQQTEHNKEKTESGTHPKGTRRKKKEPDSD
partner: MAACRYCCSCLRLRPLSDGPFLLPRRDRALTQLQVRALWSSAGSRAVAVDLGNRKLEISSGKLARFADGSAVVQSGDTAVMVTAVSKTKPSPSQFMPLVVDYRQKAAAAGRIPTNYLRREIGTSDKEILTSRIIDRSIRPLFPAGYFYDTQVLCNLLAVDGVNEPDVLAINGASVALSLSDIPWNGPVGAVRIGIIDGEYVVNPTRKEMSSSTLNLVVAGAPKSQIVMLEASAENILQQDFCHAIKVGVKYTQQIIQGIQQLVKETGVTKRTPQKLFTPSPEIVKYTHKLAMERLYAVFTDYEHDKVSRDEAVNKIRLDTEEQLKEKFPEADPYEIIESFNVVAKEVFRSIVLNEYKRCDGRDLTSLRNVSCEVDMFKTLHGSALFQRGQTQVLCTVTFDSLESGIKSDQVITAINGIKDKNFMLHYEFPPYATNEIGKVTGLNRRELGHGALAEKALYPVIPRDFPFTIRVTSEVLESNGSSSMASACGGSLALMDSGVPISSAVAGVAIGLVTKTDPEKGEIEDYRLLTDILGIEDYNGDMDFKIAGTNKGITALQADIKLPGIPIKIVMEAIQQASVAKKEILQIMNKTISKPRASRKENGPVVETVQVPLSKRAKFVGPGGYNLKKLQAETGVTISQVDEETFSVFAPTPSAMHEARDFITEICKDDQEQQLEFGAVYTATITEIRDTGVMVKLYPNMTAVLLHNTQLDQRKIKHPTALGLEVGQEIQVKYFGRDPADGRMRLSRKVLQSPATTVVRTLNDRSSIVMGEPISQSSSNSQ

This assay covers variants of B1. The conditions noted are these: with pnpt1_human PNPT1, Q8TCS8.
Take K213A: the “effect of a mutation on the interaction” value is recorded as “with no effect”.
